Test results reported in patent US20080318246A1, “Deeply quenched enzyme sensors” (The Albert Einstein College of Medicine of Yeshiva …, priority 2007, published 2008).

Target: 14-3-3τ (UniProt P27348)
Assay: cell-based or functional assay

14-3-3τ, sequence (P27348 whole entry): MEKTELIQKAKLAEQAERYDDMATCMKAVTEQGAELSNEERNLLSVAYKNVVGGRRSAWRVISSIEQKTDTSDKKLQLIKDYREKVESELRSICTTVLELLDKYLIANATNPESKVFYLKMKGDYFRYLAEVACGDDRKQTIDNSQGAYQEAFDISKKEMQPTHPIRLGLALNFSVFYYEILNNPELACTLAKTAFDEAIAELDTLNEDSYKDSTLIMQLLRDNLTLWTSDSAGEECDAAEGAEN

Substance: phosphorylated P5 peptide AcDap(Pyr)RTGRRFS(PO3 2-)YP-amide
- % Fluorescence Enhancement on phosphorylation, no quenching dye: 64%
- PKA-induced fluorescence change; Alizarin Red 5x: 1.7 fold
- PKA-induced fluorescence change; Alizarin Red 10x: 1.59 fold
- PKA-induced fluorescence change; Alizarin Red 25x: 1.49 fold
- PKA-induced fluorescence change; Alizarin Red 50x: 1.5 fold
- PKA-induced fluorescence change; Aniline Blue WS 5x: 3.02 fold
- PKA-induced fluorescence change; Aniline Blue WS 10x: 5.36 fold
- PKA-induced fluorescence change; Aniline Blue WS 25x: 6.04 fold
- PKA-induced fluorescence change; Aniline Blue WS 50x: 1.23 fold
- PKA-induced fluorescence change; Chlorazol Black E 5x: 5.62 fold
- PKA-induced fluorescence change; Chlorazol Black E 10x: 1.52 fold
- PKA-induced fluorescence change; Chlorazol Black E 25x: 0.21 fold
- PKA-induced fluorescence change; Chlorazol Black E 50x: 0.25 fold
- PKA-induced fluorescence change; Eriochrome Black T 5x: 1.61 fold
- PKA-induced fluorescence change; Eriochrome Black T 10x: 1.73 fold
- PKA-induced fluorescence change; Eriochrome Black T 25x: 0.84 fold
- PKA-induced fluorescence change; Eriochrome Black T 50x: 1.12 fold
- PKA-induced fluorescence change; Evans Blue 5x: 1.33 fold
- PKA-induced fluorescence change; Evans Blue 10x: 0.92 fold
- PKA-induced fluorescence change; Evans Blue 25x: 0.84 fold
- PKA-induced fluorescence change; Evans Blue 50x: 0.78 fold
- PKA-induced fluorescence change; Ponceau S 5x: 2.85 fold
- PKA-induced fluorescence change; Ponceau S 10x: 3.3 fold
- PKA-induced fluorescence change; Ponceau S 25x: 3.23 fold
- PKA-induced fluorescence change; Ponceau S 50x: 4.36 fold
- PKA-induced fluorescence change; Reactive Blue 2 5x: 2.28 fold
- PKA-induced fluorescence change; Reactive Blue 2 10x: 3.99 fold
- PKA-induced fluorescence change; Reactive Blue 2 25x: 6.44 fold
- PKA-induced fluorescence change; Reactive Blue 2 50x: 5.79 fold
- PKA-induced fluorescence change; Rose Bengal 5x: 8.36 fold
- PKA-induced fluorescence change; Rose Bengal 10x: 3.45 fold
- PKA-induced fluorescence change; Rose Bengal 25x: 1.02 fold
- PKA-induced fluorescence change; Rose Bengal 50x: 0.95 fold
- PKA-induced fluorescence change; Tartrazine 5x: 1.43 fold
- PKA-induced fluorescence change; Tartrazine 10x: 1.52 fold
- PKA-induced fluorescence change; Tartrazine 25x: 1.79 fold
- PKA-induced fluorescence change; Tartrazine 50x: 2.05 fold
- PKA-induced fluorescence change; Trypan Blue 5x: 6.21 fold
- PKA-induced fluorescence change; Trypan Blue 10x: 2.72 fold
- PKA-induced fluorescence change; Trypan Blue 25x: 3.61 fold
- PKA-induced fluorescence change; Trypan Blue 50x: 3.48 fold
- Phosphorylation-induced fluorescence fold-change; P5/Rose Bengal (1:5), plate reader - bottom read: 8 fold
- Phosphorylation-induced fluorescence fold-change; P5/Rose Bengal (1:5), plate reader - top read: 30 fold
- Phosphorylation-induced fluorescence fold-change; P5/Rose Bengal (1:5), spectrofluorimeter: 64 fold

Substance: P4, Ac-GRDap(Pyr)GRRFSYP-amide, serine-phosphorylated by PKA in the assay (peptide)
- % Fluorescence Enhancement on phosphorylation, no quenching dye: 40%
- PKA-induced fluorescence change; Alizarin Red 5x: 1.36 fold
- PKA-induced fluorescence change; Alizarin Red 10x: 1.33 fold
- PKA-induced fluorescence change; Alizarin Red 25x: 1.23 fold
- PKA-induced fluorescence change; Alizarin Red 50x: 1.07 fold
- PKA-induced fluorescence change; Aniline Blue WS 5x: 2.34 fold
- PKA-induced fluorescence change; Aniline Blue WS 10x: 4.82 fold
- PKA-induced fluorescence change; Aniline Blue WS 25x: 5.58 fold
- PKA-induced fluorescence change; Aniline Blue WS 50x: 1.4 fold
- PKA-induced fluorescence change; Chlorazol Black E 5x: 4.01 fold
- PKA-induced fluorescence change; Chlorazol Black E 10x: 0.93 fold
- PKA-induced fluorescence change; Chlorazol Black E 25x: 0.55 fold
- PKA-induced fluorescence change; Chlorazol Black E 50x: 0.87 fold
- PKA-induced fluorescence change; Eriochrome Black T 5x: 1.32 fold
- PKA-induced fluorescence change; Eriochrome Black T 10x: 1.12 fold
- PKA-induced fluorescence change; Eriochrome Black T 25x: 0.59 fold
- PKA-induced fluorescence change; Eriochrome Black T 50x: 0.59 fold
- PKA-induced fluorescence change; Evans Blue 5x: 0.98 fold
- PKA-induced fluorescence change; Evans Blue 10x: 0.91 fold
- PKA-induced fluorescence change; Evans Blue 25x: 0.89 fold
- PKA-induced fluorescence change; Evans Blue 50x: 0.91 fold
- PKA-induced fluorescence change; Ponceau S 5x: 2.26 fold
- PKA-induced fluorescence change; Ponceau S 10x: 2.63 fold
- PKA-induced fluorescence change; Ponceau S 25x: 2.88 fold
- PKA-induced fluorescence change; Ponceau S 50x: 2.69 fold
- PKA-induced fluorescence change; Reactive Blue 2 5x: 2.16 fold
- PKA-induced fluorescence change; Reactive Blue 2 10x: 2.66 fold
- PKA-induced fluorescence change; Reactive Blue 2 25x: 3.55 fold
- PKA-induced fluorescence change; Reactive Blue 2 50x: 4.27 fold
- PKA-induced fluorescence change; Rose Bengal 5x: 6.52 fold
- PKA-induced fluorescence change; Rose Bengal 10x: 2.88 fold
- PKA-induced fluorescence change; Rose Bengal 25x: 1.1 fold
- PKA-induced fluorescence change; Rose Bengal 50x: 0.91 fold
- PKA-induced fluorescence change; Tartrazine 5x: 1.28 fold
- PKA-induced fluorescence change; Tartrazine 10x: 1.42 fold
- PKA-induced fluorescence change; Tartrazine 25x: 1.46 fold
- PKA-induced fluorescence change; Tartrazine 50x: 1.47 fold
- PKA-induced fluorescence change; Trypan Blue 5x: 3.03 fold
- PKA-induced fluorescence change; Trypan Blue 10x: 2.18 fold
- PKA-induced fluorescence change; Trypan Blue 25x: 1.72 fold
- PKA-induced fluorescence change; Trypan Blue 50x: 2.76 fold
